B1: unmethylated target DNA (dsDNA)
DNA 1: GGGGCGGGGCC
DNA 2: GGCCCCGCCCC
B2: methylated target DNA (dsDNA)
DNA 1: GGGGCGGGGCC
DNA 2: GGCCCCGCCCC
modifications: 5mC at position 5 of G chain and position 6 of C chain

Target: peptide F (two-zinc-finger peptide, X = phenylalanine) (Artificial Sequence)
Test: EMSA; 100 uM ZnCl2, 100 mM NaCl, 4 C
Settings: protein: synthetic; tags: none; chemically synthesized (Fmoc SPPS), C-terminal amide; label: 5'-32P on G chain
Method: These bands obtained on the gel were quantified using Image Gauge software (FUJIFILM Corporation, ver. 4.01). The ratio of DNA bound to the peptide ([bound]/[bound]+[free]) was calculated from the band intensity at each peptide concentration; using this and the concentration of the peptide, the dissociation constant between the peptide and the DNA was calculated from the calculation equation (2) below.

Sequence of peptide F (two-zinc-finger peptide, X = phenylalanine) (Artificial Sequence) (chain, as listed by the source): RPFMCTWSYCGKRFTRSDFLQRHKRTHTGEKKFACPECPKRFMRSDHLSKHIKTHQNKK

Binder | Kd
B1 | 2.1 µM
B2 | 5.58 µM

Reference: patent publication US20120238038, “PEPTIDE BINDING TO METHYLATED DNA” (published 2012)
